Target: T1, CD20 (human, UniProt P11836 1-297)
T1 construct: whole, on cells; 2H7 is called murine anti-human CD20; also called CD20 presented on WIL-2S cells; CD20 on Ramos, BJAB, SU-DHL-6 and DoHH2 B cells
T1 sequence (looked up): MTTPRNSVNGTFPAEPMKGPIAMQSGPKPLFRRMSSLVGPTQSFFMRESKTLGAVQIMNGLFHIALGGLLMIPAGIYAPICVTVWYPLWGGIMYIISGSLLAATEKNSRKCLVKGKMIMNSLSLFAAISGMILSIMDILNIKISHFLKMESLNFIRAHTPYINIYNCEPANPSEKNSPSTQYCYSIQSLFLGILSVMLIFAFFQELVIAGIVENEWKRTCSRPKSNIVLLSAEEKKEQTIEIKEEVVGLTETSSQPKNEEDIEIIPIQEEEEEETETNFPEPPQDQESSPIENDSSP
Test: flow cytometry on WIL2-S cells (CD20), protein A purified protein at 0.72 ug/ml, FITC goat anti-human IgG
Method: “L1-L6” refers to the 2H7-sss-hIgG-Lx-2e12 molecules where […] represents the L1-L6 linkers and the 2e12 V regions in the orientation of VL-VH. All the molecules were tested at a concentration of 0.72 μg/ml, and the binding detected using FITC conjugated goat anti-human IgG at 1:100.

B1: 2H7-sss-hIgG P238S/P331S-H5-2e12 VHVL (bispecific antibody)
chain: QIVLSQSPAILSASPGEKVTMTCRASSSVSYMHWYQQKPGSSPKPWIYAPSNLASGVPARFSGSGSGTSYSLTISRVEAEDAATYYCQQWSFNPPTFGAGTKLELKDGGGSGGGGSGGGGSSQAYLQQSGAESVRPGASVKMSCKASGYTFTSYNMHWVKQTPRQGLEWIGAIYPGNGDTSYNQKFKGKATLTVDKSSSTAYMQLSSLTSEDSAVYFCARVVYYSNSYWYFDVWGTGTTVTVSEPKSSDKTHTSPPSPAPELLGGSSVFLFPPKPKDTLMISRTPEVTCVVVDVSHEDPEVKFNWYVDGVEVHNAKTKPREEQYNSTYRVVSVLTVLHQDWLNGKEYKCKVSNKALPASIEKTISKAKGQPREPQVYTLPPSRDELTKNQVSLTCLVKGFYPSDIAVEWESNGQPENNYKTTPPVLDSDGSFFLYSKLTVDKSRWQQGNVFSCSVMHEALHNHYTQKSLSLSPGKNYGGGGSGGGGSGNSQVQLKESGPGLVAPSQSLSITCTVSGFSLTGYGVNWVRQPPGKGLEWLGMIWGDGSTDYNSALKSRLSITKDNSKSQVFLKMNSLQTDDTARYYCARDGYSNFHYYVMDYWGQGTSVTVSSGGGGSGGGGSGGGGSGGGGSDIVLTQSPASLAVSLGQRATISCRASESVEYYVTSLMQWYQQKPGQPPKLLISAASNVESGVPARFSGSGSGTDFSLNIHPVEEDDIAMYFCQQSRKVPWTFGGGTKLEIKR
notes: Assembled from modules as m11; also called 2H7-sss-hIgG-H5-2e12 HL
binding result: binds

B2: 2H7-sss-hIgG-L6-2e12 (H6 linker, 2e12 VL-VH) (bispecific antibody)
chain (part 1 of 2): QIVLSQSPAILSASPGEKVTMTCRASSSVSYMHWYQQKPGSSPKPWIYAPSNLASGVPARFSGSGSGTSYSLTISRVEAEDAATYYCQQWSFNPPTFGAGTKLELKDGGGSGGGGSGGGGSSQAYLQQSGAESVRPGASVKMSCKASGYTFTSYNMHWVKQTPRQGLEWIGAIYPGNGDTSYNQKFKGKATLTVDKSSSTAYMQLSSLTSEDSAVYFCARVVYYSNSYWYFDVWGTGTTVTVSEPKSSDKTHTSPPSP
chain (part 2 of 2): GGGGSGGGGSGGGGSGNSDIVLTQSPASLAVSLGQRATISCRASESVEYYVTSLMQWYQQKPGQPPKLLISAASNVESGVPARFSGSGSGTDFSLNIHPVEEDDIAMYFCQQSRKVPWTFGGGTKLEIKRGGGGSGGGGSGGGGSQVQLKESGPGLVAPSQSLSITCTVSGFSLTGYGVNWVRQPPGKGLEWLGMIWGDGSTDYNSALKSRLSITKDNSKSQVFLKMNSLQTDDTARYYCARDGYSNFHYYVMDYWGQGTSVTVSS
notes: Assembled from modules as m10; not shown: human IgG1 CH2-CH3
binding result: binds

B3: 2H7-sss-hIgG-L5-2e12 (H5 linker, 2e12 VL-VH) (bispecific antibody)
chain (part 1 of 2): QIVLSQSPAILSASPGEKVTMTCRASSSVSYMHWYQQKPGSSPKPWIYAPSNLASGVPARFSGSGSGTSYSLTISRVEAEDAATYYCQQWSFNPPTFGAGTKLELKDGGGSGGGGSGGGGSSQAYLQQSGAESVRPGASVKMSCKASGYTFTSYNMHWVKQTPRQGLEWIGAIYPGNGDTSYNQKFKGKATLTVDKSSSTAYMQLSSLTSEDSAVYFCARVVYYSNSYWYFDVWGTGTTVTVSEPKSSDKTHTSPPSP
chain (part 2 of 2): NYGGGGSGGGGSGNSDIVLTQSPASLAVSLGQRATISCRASESVEYYVTSLMQWYQQKPGQPPKLLISAASNVESGVPARFSGSGSGTDFSLNIHPVEEDDIAMYFCQQSRKVPWTFGGGTKLEIKRGGGGSGGGGSGGGGSQVQLKESGPGLVAPSQSLSITCTVSGFSLTGYGVNWVRQPPGKGLEWLGMIWGDGSTDYNSALKSRLSITKDNSKSQVFLKMNSLQTDDTARYYCARDGYSNFHYYVMDYWGQGTSVTVSS
notes: as for B2
binding result: binds

B4: 2H7-sss-hIgG P238S/P331S-H2-2e12 VHVL (bispecific antibody)
chain: QIVLSQSPAILSASPGEKVTMTCRASSSVSYMHWYQQKPGSSPKPWIYAPSNLASGVPARFSGSGSGTSYSLTISRVEAEDAATYYCQQWSFNPPTFGAGTKLELKDGGGSGGGGSGGGGSSQAYLQQSGAESVRPGASVKMSCKASGYTFTSYNMHWVKQTPRQGLEWIGAIYPGNGDTSYNQKFKGKATLTVDKSSSTAYMQLSSLTSEDSAVYFCARVVYYSNSYWYFDVWGTGTTVTVSEPKSSDKTHTSPPSPAPELLGGSSVFLFPPKPKDTLMISRTPEVTCVVVDVSHEDPEVKFNWYVDGVEVHNAKTKPREEQYNSTYRVVSVLTVLHQDWLNGKEYKCKVSNKALPASIEKTISKAKGQPREPQVYTLPPSRDELTKNQVSLTCLVKGFYPSDIAVEWESNGQPENNYKTTPPVLDSDGSFFLYSKLTVDKSRWQQGNVFSCSVMHEALHNHYTQKSLSLSPGKGGGGSGNSQVQLKESGPGLVAPSQSLSITCTVSGFSLTGYGVNWVRQPPGKGLEWLGMIWGDGSTDYNSALKSRLSITKDNSKSQVFLKMNSLQTDDTARYYCARDGYSNFHYYVMDYWGQGTSVTVSSGGGGSGGGGSGGGGSGGGGSDIVLTQSPASLAVSLGQRATISCRASESVEYYVTSLMQWYQQKPGQPPKLLISAASNVESGVPARFSGSGSGTDFSLNIHPVEEDDIAMYFCQQSRKVPWTFGGGTKLEIKR
notes: Assembled from modules as m11; also called 2H7-sss-hIgG-H2-2e12 HL
binding result: binds

B5: 2H7-sss-hIgG P238S/P331S-H1-2e12 VHVL (bispecific antibody)
chain: QIVLSQSPAILSASPGEKVTMTCRASSSVSYMHWYQQKPGSSPKPWIYAPSNLASGVPARFSGSGSGTSYSLTISRVEAEDAATYYCQQWSFNPPTFGAGTKLELKDGGGSGGGGSGGGGSSQAYLQQSGAESVRPGASVKMSCKASGYTFTSYNMHWVKQTPRQGLEWIGAIYPGNGDTSYNQKFKGKATLTVDKSSSTAYMQLSSLTSEDSAVYFCARVVYYSNSYWYFDVWGTGTTVTVSEPKSSDKTHTSPPSPAPELLGGSSVFLFPPKPKDTLMISRTPEVTCVVVDVSHEDPEVKFNWYVDGVEVHNAKTKPREEQYNSTYRVVSVLTVLHQDWLNGKEYKCKVSNKALPASIEKTISKAKGQPREPQVYTLPPSRDELTKNQVSLTCLVKGFYPSDIAVEWESNGQPENNYKTTPPVLDSDGSFFLYSKLTVDKSRWQQGNVFSCSVMHEALHNHYTQKSLSLSPGKNSQVQLKESGPGLVAPSQSLSITCTVSGFSLTGYGVNWVRQPPGKGLEWLGMIWGDGSTDYNSALKSRLSITKDNSKSQVFLKMNSLQTDDTARYYCARDGYSNFHYYVMDYWGQGTSVTVSSGGGGSGGGGSGGGGSGGGGSDIVLTQSPASLAVSLGQRATISCRASESVEYYVTSLMQWYQQKPGQPPKLLISAASNVESGVPARFSGSGSGTDFSLNIHPVEEDDIAMYFCQQSRKVPWTFGGGTKLEIKR
notes: Assembled from modules as m11; also called 2H7-sss-hIgG-H1-2e12 HL; TRU015-sss-IgG-H1-2e12 HL
binding result: binds

B6: 2H7-sss-hIgG P238S/P331S-H4-2e12 VHVL (bispecific antibody)
chain: QIVLSQSPAILSASPGEKVTMTCRASSSVSYMHWYQQKPGSSPKPWIYAPSNLASGVPARFSGSGSGTSYSLTISRVEAEDAATYYCQQWSFNPPTFGAGTKLELKDGGGSGGGGSGGGGSSQAYLQQSGAESVRPGASVKMSCKASGYTFTSYNMHWVKQTPRQGLEWIGAIYPGNGDTSYNQKFKGKATLTVDKSSSTAYMQLSSLTSEDSAVYFCARVVYYSNSYWYFDVWGTGTTVTVSEPKSSDKTHTSPPSPAPELLGGSSVFLFPPKPKDTLMISRTPEVTCVVVDVSHEDPEVKFNWYVDGVEVHNAKTKPREEQYNSTYRVVSVLTVLHQDWLNGKEYKCKVSNKALPASIEKTISKAKGQPREPQVYTLPPSRDELTKNQVSLTCLVKGFYPSDIAVEWESNGQPENNYKTTPPVLDSDGSFFLYSKLTVDKSRWQQGNVFSCSVMHEALHNHYTQKSLSLSPGKGGGGSGGGGSGNSQVQLKESGPGLVAPSQSLSITCTVSGFSLTGYGVNWVRQPPGKGLEWLGMIWGDGSTDYNSALKSRLSITKDNSKSQVFLKMNSLQTDDTARYYCARDGYSNFHYYVMDYWGQGTSVTVSSGGGGSGGGGSGGGGSGGGGSDIVLTQSPASLAVSLGQRATISCRASESVEYYVTSLMQWYQQKPGQPPKLLISAASNVESGVPARFSGSGSGTDFSLNIHPVEEDDIAMYFCQQSRKVPWTFGGGTKLEIKR
notes: Assembled from modules as m11; also called 2H7-sss-hIgG-H4-2e12 HL
binding result: binds
